Four molecules from patent US11072643B2, “Fusion protein” (ADVANCECOR GMBH, priority 2017, dated 2021) can be followed below.

In data set [1] the test system is Citrated blood of healthy donors. Briefly: In vitro closure time with Innovance PFA-200. As to conditions: human blood ex vivo; for PFA-200 closure time, COL/ADP cartridges / PFA-200 closure time, COL/EPI cartridges: GPVI-CD39 21.7 to 217 nmol/L, versus PBS buffer control. Type of data set: cell-based. From the text:
(§1) Informed consent was obtained as approved by the local Ethics Committee. An overall number of 58 healthy volunteers was included into the study: blood samples from 39 subjects were taken for in vitro experiments using vascular agonists, and blood samples from 19 subjects for experiments involving human plaque material.
Citrated blood of healthy donors was mixed with antagonist in concentrations indicated in the figures, and added to Dade® PFA COL/EPI, Dade® PFA COL/ADP, or Innovance® PFA P2Y test cartridges (Siemens Healthcare, Erlangen, Germany). Blood was aspirated under high shear conditions (>5000/s) through a capillary onto a membrane with a small aperture coated with substances which activate platelets and lead to closure of this aperture. The time until closure of this aperture is monitored and expressed as in vitro closure time with a maximum closure time of 300 s.

In a further data set the test system is C57BL/6J wild type mice. Briefly: In vivo thrombus formation after FeCl3 injury in carotid arteries. Set-up: species or system mouse. As for the experimental part: For examination of arterial thrombus formation in vivo, 6-8 weeks old C57BL/6J wild type mice were anesthetized by injection of midazolame (5 mg/kg body weight), medetomidine (0.5 mg/kg body weight) and fentanyl (0.05 mg/kg body weight). In the ferric chloride model, an overall number of 21 mice was studied.
The common carotid artery was dissected free and the mice were injected intravenously 30 minutes before carotid injury with GPVI-CD39 (3 mg/kg body weight) or its control and with GP1bα-488 (Emfret Analytics, Eibelstadt, Germany) for platelet visualization. The carotid was exteriorized and injured by topical application of a filter paper saturated with 15% ferric chloride for 1 minute. Thrombus formation in arteries was monitored for 20 minutes or until complete occlusion (stop of blood flow for >1 min). Digital films and images were recorded with a Nikon eclipse intravital microscope and analysed offline.

Data set [2] can be described thus: ADPase activity of purified protein (Malachite Green phosphate detection). Type of data set: biochemical. The following applies: purified protein at various concentrations, 200 μM ADP, 37° C., pH 7.5. As for the experimental part:
(§2) Various concentrations of GPVI-CD39 or solCD39 protein or plasma samples from the pharmacokinetic study diluted 1:500-1:2000 in assay buffer were incubated in 25 mM Tris-HCl, 5 mM CaCl2, pH 7.5 with 200 μM ADP in a total volume of 100 μl for 30 min or 5 min at 37° C. Enzymatically released Pi was detected using the Malachite Green Phosphate Detection Kit (R&D Systems, Minneapolis, Minn.) according to the supplier's manual. A serial dilution of Pi standard was analyzed in parallel which facilitates quantification of released Pi. Absorbance was measured at a wave length of 630 nm using a Tecan Infinite 200 ELISA reader. Enzymatic activity of purified protein was calculated taking incubation time and protein amount into account and expressed as Units per mg of protein.

A short description of data set [3]: Pharmacokinetic analysis: protein concentration in plasma by Fc-specific sandwich ELISA. Type of data set: in vivo, mouse. The following applies: mice, 4 mg/kg IV. On the procedure: (§3) ale and female wild type C57BL/6J mice of the age of 12-22 weeks were used in this small scale study. An overall number of 9 mice were investigated. GPVI-CD39 or solCD39 were applied in a volume of 5 ml/kg into the right tail vein. At time points indicated in the figure blood sampling was performed by incision of the left tail vein using 25 μl heparinized capillaries. Blood samples were recovered by centrifugation at 2400×g for 10 min. The upper plasma phase was transferred to fresh tubes and stored frozen at −20° C.
The concentration of GPVI-CD39 or Fc control protein in plasma samples was determined by Fc-specific sandwich ELISA. Wells of a MaxiSorp 96-well plate (Thermo Fisher Scientific, Waltham, Mass.) were coated with 0.1 μg/well goat-anti-human Fcγ antibody. Wells were washed three times with phosphate-buffered saline and tween-20 (PBST) between incubations. After blocking with 3% skimmed milk in PBST wells were incubated for 1 h with 50 μl of plasma from GPVI-CD39 treated (1:200) or Fc (1:500) treated mice diluted in PBST. Wells were incubated for 1 h with 100 μl of 80 ng/ml goat-anti-human IgG (H+L)-POD detection antibody. POD activity was visualized using 100 μl of Ultra TMB-ELISA substrate (Thermo Fisher Scientific, Waltham, Mass.) and signal intensities were read with a Tecan Infinite F200 ELISA reader.
For orientation: An ELISA detects its analyte on a solid surface through an enzyme-linked reagent.

The subject of another data set is C57BL/6J mice. Description: In vivo tail bleeding time in mice. On the set-up: species or system mouse. As to conditions: 15 min after IV 13 nmol/kg (4 mg/kg GPVI-CD39, 2 mg/kg GPVI-Fc), versus vehicle or buffer. On the procedure: Test or control substances were applied into the tail vein of C57BL/6J mice. Animals were anesthetized by intraperitoneal injection of 0.5 mg/kg medetomidine, 5 mg/kg midazolame, and 0.05 mg/kg fentanyl. 10 min after protein delivery a blood sample of 20 μl was drawn for analysis of recombinant protein content and ADPase activity using a heparinized capillary. 15 min after protein application the distal 2 mm of the tail were cut off, the tail was immediately immersed into pre-warmed PBS (37° C.) buffer and time-monitored until bleeding stopped for at least 30 s. […] Animals were sacrificed and a final blood sample stored for analysis.

For another data set, the system named is platelets. Briefly: Plaque-induced platelet aggregation under flow. Type of data set: cell-based. As to conditions: 150 nM GPVI-CD39.
For another data set, the system named is human platelets. Briefly: Platelet aggregation in human blood under static conditions (Multiplate impedance aggregometry). The format is cell-based. As to conditions: for inhibition of ADP-induced platelet aggregation: 6.5 μM ADP, equimolar concentrations; for inhibition of ADP-induced platelet aggregation / inhibition of collagen-induced platelet aggregation: human blood; for inhibition of platelet aggregation triggered by human plaque material: same concentrations. As for the experimental part:
as §1
The effect of GPVI-CD39 and control proteins on platelet aggregation was analyzed using the Multiplate® device (25). 1:1 diluted hirudin-anticoagulated blood was pre-incubated with antagonist for 3 min in the test cell without stirring to avoid platelet pre-activation (26). Agonist was added and samples were incubated for 6 min at 37° C. with stirring. The following agonists were used: 6.5 μM ADP, 12 μg/ml collagen isolated from rabbit aorta, or 103 μg/ml collagen type I secreted by human fibroblasts (VitroCol®, Advanced BioMatrix, San Diego, Calif.). Platelet aggregation was measured in arbitrary units over the time period (arbitrary units (AU)*min) (cumulative aggregation values).

Data set [4] can be described thus: ADPase activity in plasma samples from the pharmacokinetic study. The format is in vivo, mouse. The following applies: mice, IV 4 mg/kg GPVI-CD39 or 2 mg/kg solCD39, up to 48 h. On the procedure:
as §2, §3

Setting [5] is: 103 μg/ml collagen secreted by human fibroblasts (VitroCol).
Setting [6] is: human plaque material 333 μg/ml.

“Also recorded” adds a separate entry of the source.

For the molecule `CC(=O)Oc1ccccc1C(=O)O` [ASA, acetyl salicylic acid, reference compound], in data set [1], the “PFA-200 closure time, COL/ADP cartridges” value is recorded as “No significant differences between groups” and the “PFA-200 closure time, COL/EPI cartridges” value is reported as “inhibited the closure of the aperture completely; also recorded: significantly (p=0.04) prolonged”.

Take `CCCSc1nc(N[C@@H]2C[C@H]2c2ccc(F)c(F)c2)c2nnn([C@@H]3C[C@H](OCCO)[C@@H](O)[C@H]3O)c2n1` [ticagrelor, reference compound]: in data set [1] (1.9 μM), the “PFA-200 closure time, P2Y cartridges” value is given as “prolongations”. Further, the “PFA-200 closure time, COL/ADP cartridges” value in data set [1] is “No significant differences between groups”.

B1: GPVI-CD39: fusion protein of extracellular domain of platelet glycoprotein VI, Fc of human IgG2 and extracellular domain of human CD39, 15 amino acid linker (SEQ ID NO: 1) (protein, listed as Homo sapiens)
chain: QSGPLPKPSLQALPSSLVPLEKPVTLRCQGPPGVDLYRLEKLSSSRYQDQAVLFIPAMKRSLAGRYRCSYQNGSLWSLPSDQLELVATGVFAKPSLSAQPGPAVSSGGDVTLQCQTRYGFDQFALYKEGDPAPYKNPERWYRASFPIITVTAAHSGTYRCYSFSSRDPYLWSAPSDPLELVVTGTSVTPSRLPTEPPSSVAEFSEATAELTVSFTNKVFTTETSRSITTSPKESDSPAGPARQYYTKGNGGRVECPPCPAPPVAGPSVFLFPPKPKDTLMISRTPEVTCVVVDVSHEDPEVQFNWYVDGVEVHNAKTKPREEQFNSTFRVVSVLTVVHQDWLNGKEYKCKVSNKGLPAPIEKTISKTKGQPREPQVYTLPPSREEMTKNQVSLTCLVKGFYPSDIAVEWESNGQPENNYKTTPPMLDSDGSFFLYSKLTVDKSRWQQGNVFSCSVMHEALHNHYTQKSLSLSPGKGGGGSGGGGSGGGGSTQNKALPENVKYGIVLDAGSSHTSLYIYKWPAEKENDTGVVHQVEECRVKGPGISKFVQKVNEIGIYLTDCMERAREVIPRSQHQETPVYLGATAGMRLLRMESEELADRVLDVVERSLSNYPFDFQGARIITGQEEGAYGWITINYLLGKFSQKTRWFSIVPYETNNQETFGALDLGGASTQVTFVPQNQTIESPDNALQFRLYGKDYNVYTHSFLCYGKDQALWQKLAKDIQVASNEILRDPCFHPGYKKVVNVSDLYKTPCTKRFEMTLPFQQFEIQGIGNYQQCHQSILELFNTSYCPYSQCAFNGIFLPPLQGDFGAFSAFYFVMKFLNLTSEKVSQEKVTEMMKKFCAQPWEEIKTSYAGVKEKYLSEYCFSGTYILSLLLQGYHFTADSWEHIHFIGKIQGSDAGWTLGYMLNLTNMIPAEQPLSTPLSHST
For the molecule B1, the “time to vessel occlusion” value in the data set with C57BL/6J wild type mice (15% ferric chloride carotid injury, 3 mg/kg (10 nmol/kg) IV) is listed as 1083 s. In the data set on C57BL/6J wild type mice (15% ferric chloride, 10 nmol/kg IV (3 mg/kg GPVI-CD39, 1.5 mg/kg GPVI-Fc), versus vehicle), the “effect on ferric chloride-induced thrombus formation / occlusion time” value is “fully effective in inhibiting arterial thrombosis; also recorded: strongly delayed ferric chloride-induced thrombus formation”. Also, in data set [2], the “mean ADPase activity (specific activity)” value is listed as 11.2±4.0 U/mg. Further, the “plasma concentration time course” value in data set [3] was “decreased rapidly in the course of two hours”. Further, in data set [3] (5 min after application), the mean plasma concentration came out at 95 µg/mL. This molecule also came in with a plasma concentration in data set [3] (after 48 h) of 6 µg/mL. Besides, the “PFA-200 closure time, P2Y cartridges” value in data set [1] (47 nmol/L) and in data set [1] (217 nmol/L) was “statistically significant increase in closure time” in each case. In addition, the “PFA-200 closure time, COL/ADP cartridges” value in data set [1] is recorded as “no significant increase of closure times; also recorded: No significant differences between groups”. For the same molecule, in data set [1], the “PFA-200 closure time, COL/EPI cartridges” value was “no significant increase of closure times”. The tail bleeding time result in the data set on C57BL/6J mice is reported as “no differences; also recorded: no effect on systemic bleeding times”. The “inhibition of plaque-induced platelet aggregation” value with platelets is 81%. In addition, the “inhibition of ADP-induced platelet aggregation” value with human platelets is “Effective inhibition; also recorded: markedly reduces ADP-induced platelet aggregation”. Moreover, the “inhibition of collagen-induced platelet aggregation” value with human platelets (12 μg/ml collagen isolated from rabbit aorta) is listed as “highly significant, dose-dependent inhibition; also recorded: reduces platelet aggregation more strongly than GPVI-Fc alone”; with human platelets (setting [5]) it was “inhibited platelet aggregation significantly; also recorded: reduces platelet aggregation more strongly than GPVI-Fc alone”. In addition, the IC50 (usually the concentration needed to halve the response being measured) in the data set on human platelets (human plaque material 333 μg/ml, approximate, read-out: IC50 of inhibition of platelet aggregation triggered by human plaque material) was approximately 30 nM. In addition, the “inhibition of platelet aggregation triggered by human plaque material” value with human platelets (setting [6]) is “dose-dependent inhibition”. Besides, the “ADPase activity in plasma over time” value in data set [4] is recorded as “diminished rapidly during the first 60 min but was still detectable at very low levels after 2 d”.

B2: GPVI-Fc: dimeric soluble glycoprotein VI-Fc fusion protein (Revacept), Fc derived from human IgG1, in clinical investigation (protein)
chain: QSGPLPKPSLQALPSSLVPLEKPVTLRCQGPPGVDLYRLEKLSSSRYQDQAVLFIPAMKRSLAGRYRCSYQNGSLWSLPSDQLELVATGVFAKPSLSAQPGPAVSSGGDVTLQCQTRYGFDQFALYKEGDPAPYKNPERWYRASFPIITVTAAHSGTYRCYSFSSRDPYLWSAPSDPLELVVTGTSVTPSRLPTEPPSPVAEFSEATAELTVSFTNEVFTTETSRSITASPKESDSPAGPARQYYTK
modifications: left off: a dimerising Fc or GST
notes: dimeric soluble glycoprotein VI-Fc fusion protein (Revacept), Fc derived from human IgG1, in clinical investigation
As for B2, in data set [1], the “PFA-200 closure time, COL/ADP cartridges” value is “No significant differences between groups”. Besides, the tail bleeding time result with C57BL/6J mice is listed as “no differences”. In the data set with human platelets, the “inhibition of ADP-induced platelet aggregation” value was “no inhibitory effect”. Also, the “inhibition of collagen-induced platelet aggregation” value with human platelets (setting [5]) is on record as “minor inhibition”. The “inhibition of platelet aggregation triggered by human plaque material” value in the data set with human platelets (setting [6]) is “markedly and significantly less effective than GPVI-CD39”.
